Assay [1] addresses human lymphotoxin (TNFβ) (human) (UniProt P01374). The experiment in a line: cell-based or functional assay.
A further assay has as its target recombinant human TNFα (human, UniProt P01375 77-233). Description: cell-based or functional assay.

Sequence of recombinant human TNFα (P01375 77-233): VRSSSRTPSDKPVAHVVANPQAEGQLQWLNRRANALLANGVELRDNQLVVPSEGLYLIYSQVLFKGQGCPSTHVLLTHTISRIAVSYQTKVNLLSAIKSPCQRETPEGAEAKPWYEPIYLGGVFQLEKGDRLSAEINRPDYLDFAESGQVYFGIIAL
Sequence of human lymphotoxin (TNFβ) (human) (P01374 35-205 limits assumed): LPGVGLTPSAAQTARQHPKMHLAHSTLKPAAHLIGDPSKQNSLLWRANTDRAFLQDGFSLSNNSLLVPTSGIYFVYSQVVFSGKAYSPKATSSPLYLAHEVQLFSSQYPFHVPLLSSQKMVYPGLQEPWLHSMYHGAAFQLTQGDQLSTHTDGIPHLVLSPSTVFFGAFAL

For the molecule “p75P-sf2 (p75 extracellular domain lacking the C-terminal 53 amino acids, fused to the IgG1 heavy chain) (from UniProt P20333 23-204) (Fc fusion)”, the concentration to half-inhibit human TNFβ at 2 pM, WEHI 164 cytotoxicity in assay [1] amounted to 31 pM.

B1: p55-sf3 (p55 / IgG1 heavy chain fusion lacking the CH1 domain) (Fc fusion, human, not shown: a dimerising Fc or GST)
heavy: QVCPQGKYIHPQNNSICCTKCHKGTYLYNDCPGPGQDTDCRECESGSFTASENHLRHCLSCSKCRKEMGQVEISSCTVDRDTVCGCRKNQYRHYWSENLFQCFNCSLCLNGTVHLSCQEKQNTVCTCHAGFFLRENECVSCSNCKKSLECTKLCLPQIGTLVTVSS
On to B1, for which the “IC50: concentration of fusion protein required to inhibit 2 ng/ml (39.2 pM) TNFα by 50%, WEHI 164 cytotoxicity” value with recombinant human TNFα was 100 pM.

B2: chimeric mouse/human IgG1 anti-platelet mAb (7E3) (antibody, INN chains, looked up, V domains shown)
VH: EVQLQQSGTVLARPGASVKMSCEASGYTFTNYWMHWVKQRPGQGLEWIGAIYPGNSDTSYIQKFKGKAKLTAVTSTTSVYMELSSLTNEDSAVYYCTLYDGYYVFAYWGQGTLVTVSA
VL: EIVLTQSPVTLSVTPGDSVSLSCRASRDISNNLHWFQQTSHESPRLLIKYASQSMSGIPSRFSGSGSGTDFTLSINSVETEDFGMYFCQQTNSWPYTFGGGTKLEIK
modifications: IgG1
Regarding B2, in the assay with recombinant human TNFα, the IL-6 in supernatant of FS-4 fibroblasts; TNF 0.3 ng/ml, 4 µg/ml antibody worked out at 1.6 ng/mL; the IL-6 in supernatant of FS-4 fibroblasts; TNF 1.5 ng/ml, 4 µg/ml antibody was 1.96 ng/mL; the IL-6 in supernatant of FS-4 fibroblasts; TNF 7.5 ng/ml, 4 µg/ml antibody is 2.16 ng/mL.

B3: p75P-sf3 (as p75P-sf2 but lacking the CH1 domain) (Fc fusion, human, not shown: a dimerising Fc or GST)
heavy: QLPAQVAFTPYAPEPGSTCRLREYYDQTAQMCCSKCSPGQHAKVFCTKTSDTVCDSCEDSTYTQLWNWVPECLSCGSRCSSDQVETQACTREQNRICTCRPGWYCALSKQEGCRLCAPLRKCRPGFGVARPGTETSDVVCKPCAPGTFSNTTSSTDICRPHQICNVVAIPGNASMDAVCTSTSGTLVTVSS
B3: in the assay with recombinant human TNFα, the “IC50: concentration of fusion protein required to inhibit 2 ng/ml (39.2 pM) TNFα by 50%, WEHI 164 cytotoxicity” value turned out to be 130 pM.

These data come from patent US20030054004A1 (published 2003).
